Test results: publication PMC3401474

Tests used:
Assay in all cases: SPR
[1] = molecular target: rat HER2 (rHER2) (rat, UniProt P06494 23-654)
[2] = molecular target: human HER2 (hHER2) (human, UniProt P04626 23-652)
[3] = molecular target: human EphA2 (hEphA2) (human, UniProt P29317 24-537)
Chain of human EphA2 (hEphA2) (P29317 24-537): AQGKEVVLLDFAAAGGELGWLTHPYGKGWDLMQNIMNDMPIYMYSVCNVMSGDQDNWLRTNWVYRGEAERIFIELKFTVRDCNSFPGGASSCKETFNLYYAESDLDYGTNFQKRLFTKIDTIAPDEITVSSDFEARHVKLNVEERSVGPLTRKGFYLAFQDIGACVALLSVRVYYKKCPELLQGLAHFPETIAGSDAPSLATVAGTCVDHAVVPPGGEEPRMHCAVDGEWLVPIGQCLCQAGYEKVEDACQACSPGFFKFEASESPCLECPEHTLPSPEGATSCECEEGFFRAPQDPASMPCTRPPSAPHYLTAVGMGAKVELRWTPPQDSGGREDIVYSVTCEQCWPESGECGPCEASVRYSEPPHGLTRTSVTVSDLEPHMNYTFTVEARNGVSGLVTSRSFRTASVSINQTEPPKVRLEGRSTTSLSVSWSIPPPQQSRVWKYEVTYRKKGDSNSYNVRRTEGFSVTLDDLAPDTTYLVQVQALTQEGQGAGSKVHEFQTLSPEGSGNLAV

Chain of rat HER2 (rHER2) (P06494 23-654): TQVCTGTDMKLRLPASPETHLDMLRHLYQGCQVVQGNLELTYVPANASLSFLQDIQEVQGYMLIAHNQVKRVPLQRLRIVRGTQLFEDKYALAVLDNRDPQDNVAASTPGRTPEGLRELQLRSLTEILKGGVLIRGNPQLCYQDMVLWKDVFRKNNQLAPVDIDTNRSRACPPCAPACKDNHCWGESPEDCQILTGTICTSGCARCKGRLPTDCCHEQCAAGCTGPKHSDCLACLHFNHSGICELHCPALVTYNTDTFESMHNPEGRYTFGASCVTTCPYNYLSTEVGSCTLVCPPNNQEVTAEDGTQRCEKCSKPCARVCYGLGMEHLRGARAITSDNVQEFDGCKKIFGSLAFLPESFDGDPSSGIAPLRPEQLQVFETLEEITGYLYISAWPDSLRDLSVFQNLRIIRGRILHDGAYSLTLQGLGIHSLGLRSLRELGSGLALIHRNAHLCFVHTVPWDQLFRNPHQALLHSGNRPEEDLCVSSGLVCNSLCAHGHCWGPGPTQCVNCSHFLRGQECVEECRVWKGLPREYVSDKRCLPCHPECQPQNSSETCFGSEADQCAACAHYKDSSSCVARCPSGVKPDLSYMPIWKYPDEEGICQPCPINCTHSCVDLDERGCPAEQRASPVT

Binder	Kd [1] [nM]	binding result [2]	binding result [3]
E1 (XNA, 2'-fluoro C and U (2'-OH A and G)) RNA: GGGAGGACGAUGCGGUCCUGUCGUCUGUUCGUCCCCAGACGACUCGCCCGA	60.8		
B1 (XNA, 2'-fluoro C and U (2'-OH A and G)) RNA: GGGAGGACGAUGCGGUCUGUUGUGCUUGAUAUGCCCCAGACGACUCGCCCGA	85.2	no binding	no binding
C1 (XNA, 2'-fluoro C and U (2'-OH A and G)) RNA: GGGAGGACGAUGCGGCUGUCUACCUUCUACUGCCGCAGACGACUCGCCCGA	45.8	no binding	no binding
